The values below come from patent WO2011095604A1 (dated 2011).

Where no end group is shown, it is not given here.

T1 sequence (P00740 47-461 limits assumed): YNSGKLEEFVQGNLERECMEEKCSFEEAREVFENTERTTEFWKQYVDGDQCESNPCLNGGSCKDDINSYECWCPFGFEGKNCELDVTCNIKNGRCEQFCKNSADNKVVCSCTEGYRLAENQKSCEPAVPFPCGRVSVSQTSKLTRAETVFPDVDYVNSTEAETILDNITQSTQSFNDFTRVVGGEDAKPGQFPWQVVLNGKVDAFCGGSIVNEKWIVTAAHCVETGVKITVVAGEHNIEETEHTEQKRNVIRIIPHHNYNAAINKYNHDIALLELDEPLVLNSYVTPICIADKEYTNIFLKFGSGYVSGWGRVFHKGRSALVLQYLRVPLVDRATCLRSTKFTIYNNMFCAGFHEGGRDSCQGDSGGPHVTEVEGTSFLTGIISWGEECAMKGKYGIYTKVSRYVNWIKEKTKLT

The first assay has as its target T1, recombinant FIX (UniProt P00740 47-461).
T1 construct: Negative control; also called factor IX
Put plainly: BLI (Octet Red), biotinylated peptide on streptavidin sensor.
As to LSGKNGPWVKMIMWG (also: biotinylated (position not given here), random peptide of the Octet screening) [SEQ ID NO 11], the binding result is “no binding”.
Turning to WKHHMRKAIPKYEGK (also: biotinylated (position not given here), random peptide of the Octet screening) [SEQ ID NO 12], the binding result was “no binding”.
In the case of QRIKGLHFATSMGYA (also: biotinylated (position not given here), random peptide of the Octet screening) [SEQ ID NO 14], the binding result is “no binding”.
As for TERQMIHKIFALMSG (also: biotinylated (position not given here), random peptide of the Octet screening) [SEQ ID NO 9], the binding result is on record as “no binding”.
Turning to PIRIMIHSLIMNRPT (also: biotinylated (position not given here), random peptide of the Octet screening) [SEQ ID NO 4], the binding result is listed as “no binding”.
KKRDARTNYRYMAYS (also: biotinylated (position not given here), random peptide of the Octet screening) [SEQ ID NO 17]: the binding result was “no binding”.
In the case of TTWGMRIRLFERQAR (also: biotinylated (position not given here), random peptide of the Octet screening) [SEQ ID NO 2], the binding result is on record as “no binding”.
For the molecule RMRMYSSLRAWKESA (also: biotinylated (position not given here), random peptide of the Octet screening) [SEQ ID NO 3], the binding result was “no binding”.
Regarding EMMKPNYADLIMRKR (also: biotinylated (position not given here), random peptide of the Octet screening) [SEQ ID NO 10], the binding result is reported as “no binding”.
As for SPWSWQRQMKKWTPQ (also: biotinylated (position not given here), random peptide of the Octet screening) [SEQ ID NO 15], the binding result is “no binding”.
Take DMFKSVRQLMMSRGR (also: biotinylated (position not given here), random peptide of the Octet screening) [SEQ ID NO 13]: the binding result is recorded as “no binding”.
In the case of EYISWEYC (also: biotinylated (position not given here), random peptide of the Octet screening) [SEQ ID NO 22], the binding result was “no binding”.
SPSWVRPSIMEWRMN (also: biotinylated (position not given here), random peptide of the Octet screening) [SEQ ID NO 5]: the binding result was “no binding”.
Take NKLTSGDRPGLWFMV (also: biotinylated (position not given here), random peptide of the Octet screening) [SEQ ID NO 6]: the binding result is “no binding”.
For EPLMTMKMIRVMRKL (also: biotinylated (position not given here), random peptide of the Octet screening) [SEQ ID NO 8], the binding result is “no binding”.
Turning to IADKEYTNIFLKFGSGYVS (also: biotinylated (position not given here), random peptide of the Octet screening) [SEQ ID NO 19], the binding result is recorded as “no binding”.
As to IADKEYTNIFLKFGVSVLVDRATCLRSTKFTIYNN (also: biotinylated (position not given here), random peptide of the Octet screening) [SEQ ID NO 21], the binding result is “no binding”.
Turning to AYRPSTSREHWRRHW (also: biotinylated (position not given here), random peptide of the Octet screening) [SEQ ID NO 16], the binding result was “no binding”.
ISRWRLLMGKKSQHD (also: biotinylated (position not given here), random peptide of the Octet screening) [SEQ ID NO 18]: the binding result is reported as “no binding”.
Still for that read-out and setting: the result for RVPLVDRATCLRSTKFTIYNN (also: biotinylated (position not given here), random peptide of the Octet screening) [SEQ ID NO 20] reads “no binding”; that for WCPFGFEGKNCELDVTCNIKNGRCEQFCKNSADNKVVCS (cysteine pairing not given here; also: biotinylated (position not given here), random peptide of the Octet screening) [SEQ ID NO 23], “no binding”; that for RDERMKLIRNFSPIM (also: biotinylated (position not given here), random peptide of the Octet screening) [SEQ ID NO 7], “no binding”.

For a further assay, the target named is T2, C2 domain of FVIII (Homo sapiens (Human), UniProt P00451 2192-2351).
T2 construct: Negative control
T2 sequence: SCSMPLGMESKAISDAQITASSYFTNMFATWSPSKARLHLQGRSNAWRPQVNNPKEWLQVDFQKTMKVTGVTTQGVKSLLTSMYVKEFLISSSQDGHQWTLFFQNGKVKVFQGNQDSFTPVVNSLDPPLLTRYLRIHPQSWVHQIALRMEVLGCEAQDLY
Described as above.
As to LSGKNGPWVKMIMWG (also: biotinylated (position not given here), random peptide of the Octet screening) [SEQ ID NO 11], the binding result is “no binding”.
WKHHMRKAIPKYEGK (also: biotinylated (position not given here), random peptide of the Octet screening) [SEQ ID NO 12]: the binding result is listed as “no binding”.
QRIKGLHFATSMGYA (also: biotinylated (position not given here), random peptide of the Octet screening) [SEQ ID NO 14]: the binding result is “no binding”.
Take TERQMIHKIFALMSG (also: biotinylated (position not given here), random peptide of the Octet screening) [SEQ ID NO 9]: the binding result is given as “no binding”.
Turning to PIRIMIHSLIMNRPT (also: biotinylated (position not given here), random peptide of the Octet screening) [SEQ ID NO 4], the binding result is reported as “no binding”.
With KKRDARTNYRYMAYS (also: biotinylated (position not given here), random peptide of the Octet screening) [SEQ ID NO 17], the binding result is listed as “no binding”.
In the case of TTWGMRIRLFERQAR (also: biotinylated (position not given here), random peptide of the Octet screening) [SEQ ID NO 2], the binding result is on record as “no binding”.
On the same count and under the same terms, the result for RMRMYSSLRAWKESA (also: biotinylated (position not given here), random peptide of the Octet screening) [SEQ ID NO 3] reads “no binding”; that for EMMKPNYADLIMRKR (also: biotinylated (position not given here), random peptide of the Octet screening) [SEQ ID NO 10], “no binding”.
As to SPWSWQRQMKKWTPQ (also: biotinylated (position not given here), random peptide of the Octet screening) [SEQ ID NO 15], the binding result was “no binding”.
The same measure, in the same setting: the result for DMFKSVRQLMMSRGR (also: biotinylated (position not given here), random peptide of the Octet screening) [SEQ ID NO 13] reads “no binding”; that for EYISWEYC (also: biotinylated (position not given here), random peptide of the Octet screening) [SEQ ID NO 22], “no binding”.
Same read-out and setting: for SPSWVRPSIMEWRMN (also: biotinylated (position not given here), random peptide of the Octet screening) [SEQ ID NO 5] the value was “no binding”.
On the same count and under the same terms, for NKLTSGDRPGLWFMV (also: biotinylated (position not given here), random peptide of the Octet screening) [SEQ ID NO 6] the value was “no binding”; for EPLMTMKMIRVMRKL (also: biotinylated (position not given here), random peptide of the Octet screening) [SEQ ID NO 8], “no binding”; for IADKEYTNIFLKFGSGYVS (also: biotinylated (position not given here), random peptide of the Octet screening) [SEQ ID NO 19], “no binding”.
For IADKEYTNIFLKFGVSVLVDRATCLRSTKFTIYNN (also: biotinylated (position not given here), random peptide of the Octet screening) [SEQ ID NO 21], the binding result is on record as “no binding”.
As for AYRPSTSREHWRRHW (also: biotinylated (position not given here), random peptide of the Octet screening) [SEQ ID NO 16], the binding result is listed as “no binding”.
Still for that read-out and setting: the result for ISRWRLLMGKKSQHD (also: biotinylated (position not given here), random peptide of the Octet screening) [SEQ ID NO 18] reads “no binding”; that for RVPLVDRATCLRSTKFTIYNN (also: biotinylated (position not given here), random peptide of the Octet screening) [SEQ ID NO 20], “no binding”.
The same measure, in the same setting: the result for WCPFGFEGKNCELDVTCNIKNGRCEQFCKNSADNKVVCS (cysteine pairing not given here; also: biotinylated (position not given here), random peptide of the Octet screening) [SEQ ID NO 23] reads “no binding”.
For RDERMKLIRNFSPIM (also: biotinylated (position not given here), random peptide of the Octet screening) [SEQ ID NO 7], the binding result was “no binding”.
